The values that follow come from patent US20230093399A1, “METHODS FOR GENERATING PLURIPOTENT STEM CELL-DERIVED BROWN FAT CELLS” (AgeX Therapeutics, Inc., priority 2013, published 2023).

The test system of one assay is fBAT cells. Nature of the assay: Differentiation of fBAT preadipocyte cells in HyStem beads, Illumina microarray gene expression. It counts as cell-based, human. Conditions: 14 days HyStem beads, 50 ng/ml BMP4, FIG. 15 sample 2. The procedure:
Differentiation medium is high glucose DMEM (CellGro Cat. No. 15-013-CV) with Pyruvate, 1 mM (Gibco Cat. 11360), Pen:Strep 100U/ml:100 ug/ml (Gibco Cat. No. 504284), Glutamax 2 mM (Gibco Cat. No. 35050), Dexamethasone 0.1 uM (Sigma, St. Louis, Mo., Cat. No. D1756-100), L-Proline 0.35 mM (Sigma Cat. No. D49752), 2-phospho-L-Ascorbic Acid 0.17 mM (Sigma, Cat. No. 49792, Fluka), and ITS Premix (BD, Franklin Lakes, N.J., sterile Cat. No. 47743-628) with a final concentration 6.25 ug/ml insulin, 6.25 ug/ml transferrin, 6.25 ng/ml selenious acid, serum albumin 1.25 mg/ml, 5.35 ug/ml linoleic acid. In various differentiation conditions, the Differentiation medium is supplemented with various growth factors or other differentiation factors as described herein.
HyStem-C (BioTime, Inc. Alameda, Calif.) is a matrix composed of thiol-modified gelatin and thiolated hyaluronan crosslinked in vivo or in vitro with (polyethylene glycol diacrylate (PEGDA). We observed that clonal human embryonic progenitor cell lines such as those described in the present invention, could be efficiently differentiated in high-density cultures of said crosslinked collagen and hyaluronate in the following manner. HyStem-C® (BioTime, CA, USA) is reconstituted following the manufacturer's instructions. Briefly, the HyStem component (10 mg of thiol-modified hyaluronan) is dissolved in 1.0 ml of degassed deionized water for approximately 20 min to prepare a 1% w/v solution. […] At the desired time point, hydrogel constructs were either fixed and processed for immunohistochemical analysis or lysed using RLT (Qiagen, CA, USA) with 1% beta-mercaptoethanol for total RNA to analyze transcript expression using quantitative real-time PCR (qRT-PCR) and/or whole-genome microarray.
Total RNA was extracted directly from cells growing in 6-well plates or 10 cm tissue culture dishes using Qiagen RNeasy mini kits according to the manufacturer's instructions. […] Values of less than 120 relative fluorescence units (RFUs) were considered as nonspecific background signal. […]

The next assay concerns cell line E163. Nature of the assay: Differentiation of cell line E163 in HyStem, gene expression. It counts as cell-based, human. Conditions: E163 passage 12; 21 days in HyStem with 10 ng/mL BMP4. How it is done: HyStem-C (BioTime, Inc. Alameda, Calif.) (BioTime, Alameda, Calif., USA) was reconstituted following the manufacturer's instructions. Briefly, the HyStem component (thiol modified hyaluronan, 10 mg) was dissolved in 1.0 ml degassed deionized water for about 20 minutes to prepare a 1% w/v solution. The Gelin-S component (thiol modified gelatin, 10 mg) was dissolved in 1 ml degassed deionized water to prepare a 1% w/v solution, and PEGDA (PEG diacrylate, 10 mg) was dissolved in 0.5 ml degassed deionized water to prepare a 2% w/v solution. HyStem (1 ml, 1% w/v) was mixed with Gelin-S (1 ml, 1% w/v) immediately before use. Pelleted cells were resuspended in recently prepared HyStem:Gelin-S (1:1 v/v) mix described above. Upon the addition of crosslinker PEGDA, the cell suspension, at a final concentration of 2.0×10^7 cells/ml, was aliquoted at 25 μl aliquot four to five times into each well of 6 well plates (Corning 3516) after partial gelation to form attached beads. Following complete gelation (20 minutes), chondrogenic medium was added to each well (i.e about 4 ml/each well of a 6 well plate). […]

B1: BMP4: Bone Morphogenetic Protein 4, TGF-beta superfamily member (protein, UniProt P12644 293-408, looked up)
Bone morphogenetic protein 4: SPKHHSQRARKKNKNCRRHSLYVDFSDVGWNDWIVAPPGYQAFYCHGDCPFPLADHLNSTNHAIVQTLVNSVNSSIPKACCVPTELSAISMLYLDEYDKVVLKNYQEMVVEGCGCR
For B1, in the assay on fBAT cells, the ADIPOQ expression entry is “markedly up-regulating”, the C19ORF80 expression entry is listed as “markedly up-regulating” and the UCP1 expression entry is on record as “low or undetectable level”. For the same molecule, in the assay on cell line E163, the “adipocyte markers FABP4 and CD36 and candidate BAT cell progenitor markers such as C19orf80” value was “relatively high levels”.
